Test results taken from patent EP4309676A1 (Emergence Therapeutics AG, dated 2024).

Assays:
[1] = biological target: T1, Nectin-4 extracellular domain Fc fusion recombinant protein (human, UniProt Q96NY8 32-349); assay: ELISA, plate coated with Nec4-VCC, peroxidase-conjugated Ch-15A7.5 (FIG. 2)
T1 construct: extracellular domain; also called Nec4-VCC; Nectin-4-VCC-Fc; not shown: Fc part
T1 sequence (looked up): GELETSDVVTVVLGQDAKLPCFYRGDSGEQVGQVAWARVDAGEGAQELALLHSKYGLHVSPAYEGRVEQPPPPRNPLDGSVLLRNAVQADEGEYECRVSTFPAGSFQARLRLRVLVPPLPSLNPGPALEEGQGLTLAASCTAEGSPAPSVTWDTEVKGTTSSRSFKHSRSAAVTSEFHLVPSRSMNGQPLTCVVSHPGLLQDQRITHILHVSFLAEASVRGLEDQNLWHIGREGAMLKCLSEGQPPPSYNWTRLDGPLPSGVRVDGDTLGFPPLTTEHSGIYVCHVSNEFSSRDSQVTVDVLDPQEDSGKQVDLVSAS

[2] = biological target: T2, N-terminal Flag-tagged human Nectin-4 expressed on transfected MDA-MB231 cells (human, UniProt Q96NY8 32-510); assay: flow cytometry on MDA-MB231 cells transfected with N-terminal Flag-tagged Nectin-4 (FIG. 1)
T2 construct: whole, on cells; also called PVRL4; not shown: N-terminal Flag tag
T2 sequence (looked up): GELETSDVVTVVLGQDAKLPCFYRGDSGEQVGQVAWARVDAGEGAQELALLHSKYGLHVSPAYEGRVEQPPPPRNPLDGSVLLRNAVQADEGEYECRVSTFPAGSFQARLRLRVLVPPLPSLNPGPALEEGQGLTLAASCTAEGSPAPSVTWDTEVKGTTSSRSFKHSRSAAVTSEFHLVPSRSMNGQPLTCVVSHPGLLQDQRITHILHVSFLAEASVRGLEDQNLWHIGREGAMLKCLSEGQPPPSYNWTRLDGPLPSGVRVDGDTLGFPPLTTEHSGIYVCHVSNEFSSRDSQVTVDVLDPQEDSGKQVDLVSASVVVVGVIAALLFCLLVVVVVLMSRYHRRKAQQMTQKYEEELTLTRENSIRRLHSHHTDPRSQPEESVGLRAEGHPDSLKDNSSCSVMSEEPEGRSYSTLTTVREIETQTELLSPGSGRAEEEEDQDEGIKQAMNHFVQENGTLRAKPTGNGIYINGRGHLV

[3] = biological target: T3, human Nectin-4 on cells (CHO cells transfected with human Nectin-4 cDNA); normal differentiated human … (human, UniProt Q96NY8 32-510); assay: flow cytometry on normal differentiated human keratinocytes (NHEK), 8 pM-33 nM (FIG. 15)
T3 construct: whole, on cells
T3 sequence (looked up): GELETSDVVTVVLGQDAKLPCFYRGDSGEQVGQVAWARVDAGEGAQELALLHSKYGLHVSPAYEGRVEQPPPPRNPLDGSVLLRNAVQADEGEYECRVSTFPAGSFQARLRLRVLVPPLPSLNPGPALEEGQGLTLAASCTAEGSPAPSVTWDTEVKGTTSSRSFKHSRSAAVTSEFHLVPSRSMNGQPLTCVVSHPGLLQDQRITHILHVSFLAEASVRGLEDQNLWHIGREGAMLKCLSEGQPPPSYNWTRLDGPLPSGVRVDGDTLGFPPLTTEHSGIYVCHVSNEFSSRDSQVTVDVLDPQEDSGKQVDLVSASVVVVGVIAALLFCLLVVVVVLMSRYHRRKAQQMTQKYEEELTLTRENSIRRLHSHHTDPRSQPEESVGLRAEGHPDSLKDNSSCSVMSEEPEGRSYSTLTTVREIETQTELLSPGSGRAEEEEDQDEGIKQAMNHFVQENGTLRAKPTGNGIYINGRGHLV

[4] = biological target: T4, Nectin-1 extracellular domain Fc fusion recombinant protein (UniProt Q15223 31-355, limits assumed); assay: ELISA, plate coated with Nec1-VCC, peroxidase-conjugated Ch-15A7.5 (FIG. 2)
T4 construct: extracellular domain; also called Nec1-VCC; Nectin-1-VCC-Fc; not shown: Fc part
T4 sequence (looked up): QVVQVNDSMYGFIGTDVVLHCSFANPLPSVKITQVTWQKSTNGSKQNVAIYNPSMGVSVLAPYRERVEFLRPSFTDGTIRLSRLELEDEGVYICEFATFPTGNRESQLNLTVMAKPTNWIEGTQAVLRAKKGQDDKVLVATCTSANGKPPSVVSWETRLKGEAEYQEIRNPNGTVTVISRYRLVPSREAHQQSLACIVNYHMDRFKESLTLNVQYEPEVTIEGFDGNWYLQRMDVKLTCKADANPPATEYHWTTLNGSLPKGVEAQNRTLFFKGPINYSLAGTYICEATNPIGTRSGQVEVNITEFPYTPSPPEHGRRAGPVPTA

[5] = biological target: T5, Nectin-4 IgV-like domain Fc fusion recombinant protein (human, UniProt Q96NY8 32-147, limits assumed); assay: ELISA, plate coated with Nec4-V, peroxidase-conjugated Ch-15A7.5 (FIG. 2)
T5 construct: domain: IgV-like domain; also called Nec4-V; Nectin-4-V-Fc; not shown: Fc part
T5 sequence (looked up): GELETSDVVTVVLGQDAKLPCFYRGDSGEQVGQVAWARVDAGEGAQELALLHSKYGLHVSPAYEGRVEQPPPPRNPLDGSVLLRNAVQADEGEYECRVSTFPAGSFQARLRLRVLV

[6] = biological target: T3, human Nectin-4 on cells (CHO cells …); assay: flow cytometry on normal differentiated human keratinocytes (NHEK), 8 pM-33 nM (FIG. 15); reference antibody of the comparison

B1: Ch-15A7.5 (chimeric form of the anti-Nectin-4 monoclonal antibody 15A7.5) (antibody, V domains shown)
VH: EVKLVESGGGLVQPGGSRKLSCAASGFTFSNYGMAWVRQAPGKGPEWVAFISNLAYGINYADTVTGRFTISRENAKNTLYLEMRSLRSEDTAMYYCARGARATGWFAYWGQGTLVTVSA
VL: DIVMTQSQKFMSTSIGDRVSVTCKASQNVDTHVAWYQEKPGQSPKALIYSASYRYSGVPDRFTGSGSGTDFTLTISNVQSEDLADYFCQQYNSYPLTFGGGTKLEIK
notes: also called 15A7.5 mAb
[1]
  binding result: binds
[2]
  binding result: binds
[3]
  binding result: binds
[4]
  binding result: no binding (tested: 10 nM)
[5]
  binding result: binds

B2: Ch-5A12.2 (chimeric form of the anti-Nectin-4 monoclonal antibody 5A12.2) (antibody, V domains shown)
VH: QIQLQQSGAELVKPGASVTLSCKTSGFTFNSMYISWLKQKPGQSLEWIAWIYAGTGGTRFNQKFTGKVQLTVDTSSSTAYMQFSSLTTDDSAIYYCAIRSGFVPMDYWGQGTSVTVSS
VL: SIVMTQTPKFLLVSAGDRVTITCKASQSVSNDVAWYQQKPGQSPKLLIYYASNRYTGVPDRFTGSGYGTDFTFTISTVQAEDLAVYFCQQDYSSPWTFGGGTKLEIK
notes: also called 5A12.2 mAb
[2]
  binding result: binds
[6]
  binding result: binds
